± gives the uncertainty stated by the source.
Assay: amyloid nucleation score (Sup35N fusion, yeast selection) (log enrichment); library NNK2; higher = more nucleation; inactive = no reads after selection
Procedure, shortened: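 Peptides of 20 random codons fused to Sup35N were expressed in psi-negative yeast, induced 24 hours with 100 μM copper sulfate, then grown 7 days at 30°C on medium lacking adenine and uracil. Input and output plasmid inserts were Illumina-sequenced. Nucleation score is the DiMSum log enrichment of output over input reads, centred on the mode score of non-aggregating sequences, excluding sequences with under 100 input reads. Random libraries had three technical output replicates.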

Substance	amyloid nucleation score
KFMVLITVRMIVIRPVSVRS	0.647 ± 0.58
RCELSRRGTSLRTWRWARNG	1.46 ± 0.17
WYVYSESRIS	-0.267 ± 0.42
NNATLGQAFSRQ	0.542 ± 0.17
VSNCLQGLYFCWSTGSRSRI	6.796 ± 0.03
RKYNGCSFQHYGLSVRTRSL	2.37 ± 0.2
RGWRAGMYFACF	0.656 ± 0.42
VQNLMYIVISPFDRYGRCGR	9.735 ± 0.048
NDNKRYIHYPFLMGFTVSYL	-0.401 ± 0.6
CVLGAVYLHRLTDGCDVKFT	0.762 ± 0.81
EYQLDHVY	-0.711 ± 1.1
TLVRSVQLCCGISAWNMEAR	11.43 ± 0.031
VHLTGSCHPNYSGVGKCMVI	0.168 ± 0.49
YRCLYGRKYVFRIEPIGIVH	-0.676 ± 0.35
SYRNLDKTIRSDKLQVNLGI	-1.57 ± 1.1
GGSRTRSCQDRAHEGGK	0.949 ± 0.74
QDDGM	-0.826 ± 0.41
TVSVNLYNFVLQTSY	4.55 ± 0.069
GLLAPLSSCLCVRDFVGLKA	-0.187 ± 0.3
MDMPVWG	0.285 ± 1
NTSQDG	5.15 ± 0.087
IRNVSYDMGCELSHDMVRSR	0.044 ± 1.1

Substance	amyloid nucleation score
ATFFILRTYGVWVTSIKRRS	0.157 ± 1
CAEAFVMGFSSKGGVINRAL	2.1 ± 0.12
SLLSWRFVFCCMEYRVFLVV	inactive
LFVYIFVVKVDF	0.959 ± 0.27
PFAWANKYTIQPINPYRGAA	-0.552 ± 0.41
SMHGSNVIWESFILRQEHDV	-0.268 ± 0.31
NFCSMRSKVTCNSDDKFWNH	-1.13 ± 1.1
IVMCTRRDIA	-0.577 ± 0.56
IPWVNRTPCSTCGGFRFTDP	3.53 ± 0.08
VLVMLGGNSARVSCNWVM	7.457 ± 0.031
GRFIHKIVLNDGV	0.084 ± 0.56
HNPSIAARCGGICYDNITVW	0.838 ± 0.51
FLYTCF	0.509 ± 0.25
FAIGR	-0.077 ± 0.36
VFNLL	inactive
WSHGHIFIRD	inactive
SFNNTHVVPMYLFF	5.402 ± 0.047
DNKYGFMIVIYTYSAGDAEE	2.62 ± 0.061
ETYLVFV	0.072 ± 0.79
GVRWYAMRPEVGYL	0.155 ± 1.1
CPVSAASLSNLFDVAHNGVR	5.354 ± 0.035
VSNPSGVREPATTGGQSLAI	0.966 ± 0.47

Substance	amyloid nucleation score
CKALQLLKGNLIDYCVPFLV	-1.05 ± 0.48
PALQCLSHRAIA	0.222 ± 0.62
LLSRPTGQLVVPSQGLHFCY	0.242 ± 0.61
RFQELMTK	0.626 ± 0.8
GLRYIS	-0.102 ± 0.5
YSCFEMSCVGLGDVMIFIVL	8.119 ± 0.037
LNICDLRPLV	-0.93 ± 0.76
EEYFDWSMKCKLIYINRVPL	-0.358 ± 1
MLCCCTLQVGFAYIFLFL	3.28 ± 0.15
IIPQNSQDQNRDISVKAFSV	-0.937 ± 0.61
RRIINFQGHREEYGEMHTVM	-0.449 ± 0.64
IKCWAPLNCSGGLVGHDQAV	-0.562 ± 0.44
YRYKRLSRRV	-1.09 ± 0.78
ISFYFSAWDKTVQTRRYIDH	-0.356 ± 0.33
FTVMFLLKMISFKGALHLRL	-0.764 ± 0.65
SLWTNTSWSAVVQNNWYGTF	6.94 ± 0.054
HGMYKTG	2.54 ± 0.11
SAGFCFNNCFVFASGDYVNR	7.493 ± 0.047
TCAGIV	0.408 ± 0.41
SNEGWIKCWILYFVFGAWMI	-0.896 ± 0.79
GTTCGSSCRVVSLMKENVGA	-0.367 ± 0.48
QFVSDALVWGGITSMGWLMR	0.756 ± 0.4

Substance	amyloid nucleation score
FQCNCTLSQIAWNKSQGQSS	-0.363 ± 1.1
SIKNHRDREILAMPGVSRSA	inactive
RYMCGRGHRCF	3.04 ± 0.087
HLYCRALILLVVLPGYTQLL	-1.07 ± 0.78
PGPAKVANCGWCTYTGGTSH	1.12 ± 0.45
VSFSSNHGFAMVRLSWSQKR	5.49 ± 0.058
NHRETVFVVIASRSWHARFG	-0.19 ± 1
ASHLVVTLVNKVKCNAVVRG	0.758 ± 0.21
LLYNGVILLECGWYMVSVAS	-0.071 ± 0.29
YCYARD	-0.172 ± 1.1
MRTIGGD	0.348 ± 0.38
NLYTYAVKAVSYSMTGVFIS	-0.114 ± 1
SGSRVYFQTPN	inactive
NIVKGFRCLCVNLTDFRETR	4.09 ± 0.12
MIHYKYGFPNMGIRTYVSFV	1.47 ± 0.26
SVLIAQLDAAYGISVVRSPG	0.264 ± 0.18
NILTRYS	-0.013 ± 0.31
ARFASIWVWTLGDCWRKCSY	-0.152 ± 0.76
KMKAGAMWCGSRIASKSRRG	1.51 ± 0.15
AREHPKY	0.645 ± 0.14
TFIAMSQALMTVYIGALLQW	3.57 ± 0.061

— the supplement of paper PMC12042874
